What was measured:
HeLa Kyoto [1] = test: solubility in G1/S (NP-40 vs SDS abundance) (log2 ratio); higher = more soluble; conditions: cell cycle stage: G1/S
HeLa Kyoto [2] = test: melting temperature (median over replicates), in situ; higher = more thermally stable
HeLa Kyoto [3] = test: solubility change mitosis vs G1/S (difference of NP-40 vs SDS log2 ratios) (log2 ratio difference); higher = more soluble in mitosis
HeLa Kyoto [4] = test: thermal stability score vs G1/S (z-score of summed log2 fold changes over temperatures); higher = more thermally stable than in G1/S
[5] = cell cycle stage: early G1 (4.5 h after nocodazole release)
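For melting temperature (median over replicates), in situ in this document: HeLa Kyoto cells synchronized by double thymidine or nocodazole block, proteins quantified by TMT10plex mass spectrometry, three independent biological replicates.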
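For solubility change mitosis vs G1/S (difference of NP-40 vs SDS log2 ratios) in this document: synchronized HeLa Kyoto cells (double thymidine block for G1/S, nocodazole release for mitosis), protein amounts in NP-40 versus SDS lysates quantified by mass spectrometry, three biological replicates.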
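For solubility in G1/S (NP-40 vs SDS abundance) in this document: HeLa Kyoto cells arrested at G1/S by double thymidine block, proteins quantified by TMT10plex mass spectrometry in mild NP-40 versus SDS extracts, three biological replicates.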
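For thermal stability score vs G1/S (z-score of summed log2 fold changes over temperatures) in this document: synchronized HeLa Kyoto cells, proteins quantified by TMT10plex mass spectrometry, three biological replicates, mitosis taken 0.5 h after nocodazole release, G1/S directly after double thymidine block.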

Row | Sequence | solubility in G1/S (log2) (HeLa Kyoto [1]) | melting temperature (HeLa Kyoto [2]; cell cycle stage: G1/S) | melting temperature (HeLa Kyoto [2]; cell cycle stage: mitosis) | solubility change mitosis (log2) (HeLa Kyoto [3]) | thermal stability score (HeLa Kyoto [4]; [5]) | thermal stability score (HeLa Kyoto [4]; cell cycle stage: mitosis)
1 | MAEPSAPESKHKSSLNSSPWSGLMALGNSRHGHHGPGAQCAHKAAGGAAPPKPAPAGLSGGLSQPAGWQSLLSFTILFLAWLAGFSSRLFAVIRFESIIHEFDPWFNYRSTHHLASHGFYEFLNWFDERAWYPLGRIVGGTVYPGLMITAGLIHWILNTLNITVHIRDVCVFLAPTFSGLTSISTFLLTRELWNQGAGLLAACFIAIVPGYISRSVAGSFDNEGIAIFALQFTYYLWVKSVKTGSVFWTMCCCLSYFYMVSAWGGYVFIINLIPLHVFVLLLMQRYSKRVYIAYSTFYIVGLILSMQIPFVGFQPIRTSEHMAAAGVFALLQAYAFLQYLRDRLTKQEFQTLFFLGVSLAAGAVFLSVIYLTYTGYIAPWSGRFYSLWDTGYAKIHIPIIASVSEHQPTTWVSFFFDLHILVCTFPAGLWFCIKNINDERVFVALYAISAVYFAGVMVRLMLTLTPVVCMLSAIAFSNVFEHYLGDDMKRENPPVEDSSDEDDKRNQGNLYDKAGKVRKHATEQEKTEEGLGPNIKSIVTMLMLMLLMMFAVHCTWVTSNAYSSPSVVLASYNHDGTRNILDDFREAYFWLRQNTDEHARVMSWWDYGYQIAGMANRTTLVDNNTWNNSHIALVGKAMSSNETAAYKIMRTLDVDYVLVIFGGVIGYSGDDINKFLWMVRIAEGEHPKDIRESDYFTPQGEFRVDKAGSPTLLNCLMYKMSYYRFGEMQLDFRTPPGFDRTRNAEIGNKDIKFKHLEEAFTSEHWLVRIYKVKAPDNRETLDHKPRVTNIFPKQKYLSKKTTKRKRGYIKNKLVFKKGKKISKKTV [STT3B] | -0.175 | 53.8 °C | 54.2 °C | -0.0861 | 3.35 | 3.7
2 | MSRQNLVALTVTTLLGVAVGGFVLWKGIQRRRRSKTSPVTQQPQQKVLGSRELPPPEDDQLHSSAPRSSWKERILKAKVVTVSQEAEWDQIEPLLRSELEDFPVLGIDCEWVNLEGKASPLSLLQMASPSGLCVLVRLPKLICGGKTLPRTLLDILADGTILKVGVGCSEDASKLLQDYGLVVRGCLDLRYLAMRQRNNLLCNGLSLKSLAETVLNFPLDKSLLLRCSNWDAETLTEDQVIYAARDAQISVALFLHLLGYPFSRNSPGEKNDDHSSWRKVLEKCQGVVDIPFRSKGMSRLGEEVNGEATESQQKPRNKKSKMDGMVPGNHQGRDPRKHKRKPLGVGYSARKSPLYDNCFLHAPDGQPLCTCDRRKAQWYLDKGIGELVSEEPFVVKLRFEPAGRPESPGDYYLMVKENLCVVCGKRDSYIRKNVIPHEYRKHFPIEMKDHNSHDVLLLCTSCHAISNYYDNHLKQQLAKEFQAPIGSEEGLRLLEDPERRQVRSGARALLNAESLPTQRKEELLQALREFYNTDVVTEEMLQEAASLETRISNENYVPHGLKVVQCHSQGGLRSLMQLESRWRQHFLDSMQPKHLPQQWSVDHNHQKLLRKFGEDLPIQLS [EXD2] | 0.113 | 49.7 °C | 49.6 °C | -0.0547 | 0.38 | 0.455
3 | MAPVGVEKKLLLGPNGPAVAAAGDLTSEEEEGQSLWSSILSEVSTRARSKLPSGKNILVFGEDGSGKTTLMTKLQGAEHGKKGRGLEYLYLSVHDEDRDDHTRCNVWILDGDLYHKGLLKFAVSAESLPETLVIFVADMSRPWTVMESLQKWASVLREHIDKMKIPPEKMRELERKFVKDFQDYMEPEEGCQGSPQRRGPLTSGSDEENVALPLGDNVLTHNLGIPVLVVCTKCDAVSVLEKEHDYRDEHLDFIQSHLRRFCLQYGAALIYTSVKEEKNLDLLYKYIVHKTYGFHFTTPALVVEKDAVFIPAGWDNEKKIAILHENFTTVKPEDAYEDFIVKPPVRKLVHDKELAAEDEQVFLMKQQSLLAKQPATPTRASESPARGPSGSPRTQGRGGPASVPSSSPGTSVKKPDPNIKNNAASEGVLASFFNSLLSKKTGSPGSPGAGGVQSTAKKSGQKTVLSNVQEELDRMTRKPDSMVTNSSTENEA [DYNC1LI2] | 0.247 | 50.6 °C | 51.5 °C | 0.046 | -0.131 | 0.16
4 | MPHSYPALSAEQKKELSDIALRIVAPGKGILAADESVGSMAKRLSQIGVENTEENRRLYRQVLFSADDRVKKCIGGVIFFHETLYQKDDNGVPFVRTIQDKGIVVGIKVDKGVVPLAGTDGETTTQGLDGLSERCAQYKKDGADFAKWRCVLKISERTPSALAILENANVLARYASICQQNGIVPIVEPEILPDGDHDLKRCQYVTEKVLAAVYKALSDHHVYLEGTLLKPNMVTPGHACPIKYTPEEIAMATVTALRRTVPPAVPGVTFLSGGQSEEEASFNLNAINRCPLPRPWALTFSYGRALQASALNAWRGQRDNAGAATEEFIKRAEVNGLAAQGKYEGSGEDGGAAAQSLYIANHAY [ALDOC] | 0.202 | 56.9 °C | 57 °C | -0.0816 | -1.31 | -2.38
5 | MAEGNTLISVDYEIFGKVQGVFFRKHTQAEGKKLGLVGWVQNTDRGTVQGQLQGPISKVRHMQEWLETRGSPKSHIDKANFNNEKVILKLDYSDFQIVK [ACYP1] | 0.223 | 52.3 °C | 52.7 °C | -0.0383 | 0.389 | -1.31
6 | MSEGVDLIDIYADEEFNQDPEFNNTDQIDLYDDVLTATSQPSDDRSSSTEPPPPVRQEPSPKPNNKTPAILYTYSGLRNRRAAVYVGSFSWWTTDQQLIQVIRSIGVYDVVELKFAENRANGQSKGYAEVVVASENSVHKLLELLPGKVLNGEKVDVRPATRQNLSQFEAQARKRECVRVPRGGIPPRAHSRDSSDSADGRATPSENLVPSSARVDKPPSVLPYFNRPPSALPLMGLPPPPIPPPPPLSSSFGVPPPPPGIHYQHLMPPPPRLPPHLAVPPPGAIPPALHLNPAFFPPPNATVGPPPDTYMKASAPYNHHGSRDSGPPPSTVSEAEFEDIMKRNRAISSSAISKAVSGASAGDYSDAIETLLTAIAVIKQSRVANDERCRVLISSLKDCLHGIEAKSYSVGASGSSSRKRHRSRERSPSRSRESSRRHRDLLHNEDRHDDYFQERNREHERHRDRERDRHH [CPSF7] | -0.309 | 51.8 °C | 52.1 °C | 0.173 | -1.14 | -2.91
7 | MSDNGELEDKPPAPPVRMSSTIFSTGGKDPLSANHSLKPLPSVPEEKKPRHKIISIFSGTEKGSKKKEKERPEISPPSDFEHTIHVGFDAVTGEFTGMPEQWARLLQTSNITKLEQKKNPQAVLDVLKFYDSNTVKQKYLSFTPPEKDGFPSGTPALNAKGTEAPAVVTEEEDDDEETAPPVIAPRPDHTKSIYTRSVIDPVPAPVGDSHVDGAAKSLDKQKKKTKMTDEEIMEKLRTIVSIGDPKKKYTRYEKIGQGASGTVFTATDVALGQEVAIKQINLQKQPKKELIINEILVMKELKNPNIVNFLDSYLVGDELFVVMEYLAGGSLTDVVTETCMDEAQIAAVCRECLQALEFLHANQVIHRDIKSDNVLLGMEGSVKLTDFGFCAQITPEQSKRSTMVGTPYWMAPEVVTRKAYGPKVDIWSLGIMAIEMVEGEPPYLNENPLRALYLIATNGTPELQNPEKLSPIFRDFLNRCLEMDVEKRGSAKELLQHPFLKLAKPLSSLTPLIMAAKEAMKSNR [PAK2] | 0.152 | 54.9 °C | 54.6 °C | -0.119 | -1.97 | -1.45

Source: the supplement of paper PMC5998384
